# Results: patent US20090170219, “Nucleic acid capable of binding to immunoglobulin G and use thereof” (published 2009)
# B1: SEQ ID NO:19 (ssRNA)
# RNA: GGGUACGAGUCUGGACUUGCAACAAGGUGCUCCACCUACCUAGUGGAACUUGCUGAUGAGGCUCACAACAGGC
# modifications: 2'-F at all pyrimidines
# B2: SEQ ID NO:23 (ssRNA)
# RNA: GGGUACGAGUCUGGACUUGCAACCUAAUGCGGUGCUCCUCUGGAACCAUUAGCUGUUGCAAAUGAGGCUCACAACAGGC
# modifications: 2'-F at all pyrimidines
# B3: SEQ ID NO:21 (ssRNA)
# RNA: GGGUACGAGUCUGGACUUGCAACGGAUACAGGUGCUCCGAUCUUCGGAACUGGCGUUGGCGGUGAGGCUCACAACAGGC
# modifications: 2'-F at all pyrimidines
# B4: SEQ ID NO:22 (ssRNA)
# RNA: GGGUACGAGUCUGGACUUGCAAUACGAGGUGCUCCAAGGAAUCGCCCUGGAACUCGACGACGUGAGGCUCACAACAGGC
# modifications: 2'-F at all pyrimidines
# B5: SEQ ID NO:20 (ssRNA)
# RNA: GGGUACGAGUCUGGACUUGCAAGGUGCUCCGUUAGCAUUGCGGAACUUGCAAUAUAUCCUAUUGAGGCUCACAACAGGC
# modifications: 2'-F at all pyrimidines
# B6: SEQ ID NO:17-2 (23F2) (mixed)
# RNA: GGAGGUGCUCCGAAAGGAACUCCAAAAAAAAAAAAAAAA
# modifications: deoxy G1 G2 G12-A15 C22 C23 and A16 tail; 2'-F U6 C8 U9 C10 C11 C20 U21; rest 2'-OH
# B7: SEQ ID NO:17-4 (23F10) (mixed)
# RNA: B6 RNA
# modifications: deoxy G1 G2 C11 G12-A15 C22 C23 and A16 tail; 2'-F U6 C8 U9 C10 C20 U21; rest 2'-OH
# B8: SEQ ID NO:17-6 (23F12) (mixed)
# RNA: B6 RNA
# modifications: deoxy G1 G2 G7 G12-A15 C22 C23 and A16 tail; 2'-F U6 C8 U9 C10 C11 C20 U21; rest 2'-OH
# B9: SEQ ID NO:17-8 (23F25) (mixed)
# RNA: B6 RNA
# modifications: 2'-OMe G1 G2 G12-A15 C22 C23; 2'-F U6 C8 U9 C10 C11 C20 U21; deoxy A16 tail; rest 2'-OH
# B10: SEQ ID NO:17-5 (23F11) (mixed)
# RNA: B6 RNA
# modifications: deoxy G1 G2 G12-G17 C22 C23 and A16 tail; 2'-F U6 C8 U9 C10 C11 C20 U21; rest 2'-OH
# B11: SEQ ID NO:11 (ssRNA)
# RNA: GGACGAGUUACAGGUGCUCCAUCAACAAAAUGUUACAUGGAACUGUAACGGCCG
# modifications: 2'-F at all pyrimidines
# B12: SEQ ID NO:10 (ssRNA)
# RNA: GGAAUGGACGAGUUACAGGUGCUCCAUCAACAAAAUGUUACAUGGAACUGUAACGGCCGACAU
# modifications: 2'-F at all pyrimidines
# B13: SEQ ID NO:6 (ssRNA)
# RNA: GGGACACAAUGGACGGCUGGUAAGGUGCUCGGAAUGGAACUCGUCAUUCGGAACUUAACGGCCGACAUGAGAG
# modifications: 2'-F at all pyrimidines
# B14: SEQ ID NO:4 (ssRNA)
# RNA: GGGACACAAUGGACGGCCAACGUUAACUGGAACUGUAAAUCAGGUGCUCGAGAUAACGGCCGACAUGAGAG
# modifications: 2'-F at all pyrimidines
# B15: SEQ ID NO:5 (ssRNA)
# RNA: GGGACACAAUGGACGACUACAAGGUGCUCCUUGAAAUGUUAAAUGAGGAACUUGUAACGGCCGACAUGAGAG
# modifications: 2'-F at all pyrimidines
# B16: SEQ ID NO:8 (ssRNA)
# RNA: GGGACACAAUGGACGAAAGGUGCUCCAACUAAAUUUGGAACUUUCCACCCAUAAUAACGGCCGACAUGAGAG
# modifications: 2'-F at all pyrimidines
# B17: SEQ ID NO:2 (ssRNA)
# RNA: GGGACACAAUGGACGUCAAAGAAGAGGUGCUCUGCGAGCCACGCGGAACUCUAUAACGGCCGACAUGAGAG
# modifications: 2'-F at all pyrimidines
# B18: SEQ ID NO:7 (ssRNA)
# RNA: GGGACACAAUGGACGGGUGUUACAGGUGCUUGAUAAAGGUAGAAAAUCAAACUGUAACGGCCGACAUGAGAG
# modifications: 2'-F at all pyrimidines
# B19: SEQ ID NO:3 (ssRNA)
# RNA: GGGACACAAUGGACGGCGUAAAAUGGAACCUGGGUUAGAAUAUCGGGGGUGCUCCGUAACGGCCGACAUGAGAG
# modifications: 2'-F at all pyrimidines
# B20: SEQ ID NO:9 (ssRNA)
# RNA: GGGCCACAGCGAGGUGCUCCACCAUUCACGUGGAACUCGUGGGCAGCCCGUCCCCGCGUGUGGUCGG
# modifications: 2'-F at all pyrimidines
# B21: SEQ ID NO:15-3 (30F-3) (mixed)
# RNA: GGAGGUGCUCCGCGAGCCACGCGGAACUCC
# modifications: deoxy G1 G2 C11 C13 A15-A19 C20 C22 C29 C30; 2'-F U6 C8 U9 C10 C27 U28; rest 2'-OH
# B22: SEQ ID NO:15-4 (30F-4) (mixed)
# RNA: GGAGGUGCUCCGCGGAAACGCGGAACUCC
# modifications: deoxy G1 G2 C13 G15 A16 A17 A18 C19 C21 C28 C29; 2'-F U6 C8 U9 C10 C11 C26 U27; rest 2'-OH
# Target: T1, IgG1 (human, UniProt P01857-1 P01857-1:1-330)
# Assay: SPR
# Conditions: tags: Calbiochem; chain copies: 2
# T1 sequence (P01857 other isoform, or with tags, fused parts or gaps): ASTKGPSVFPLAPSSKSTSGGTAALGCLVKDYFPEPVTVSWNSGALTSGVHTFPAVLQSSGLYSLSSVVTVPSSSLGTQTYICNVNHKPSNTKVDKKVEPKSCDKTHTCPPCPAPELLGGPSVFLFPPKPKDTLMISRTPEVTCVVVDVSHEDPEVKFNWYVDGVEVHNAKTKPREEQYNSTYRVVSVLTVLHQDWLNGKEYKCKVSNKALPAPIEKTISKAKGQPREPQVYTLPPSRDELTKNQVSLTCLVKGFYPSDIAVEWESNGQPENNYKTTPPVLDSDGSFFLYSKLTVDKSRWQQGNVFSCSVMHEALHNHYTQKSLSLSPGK
row,Binder,binding result
1,B1,binds
2,"GGAGGUGUUCCGAAAGGAACUCC (ssRNA, 2'-F at all pyrimidines [2'-F pyrimidines at 6,8,9,10,11,20,21,22,23]) [SEQ ID NO:17 C8U]",no binding
3,B2,binds

# Same assay, conditions: tags: Calbiochem; chain copies: 2; GGUGCU bulge
row,Binder,binding result
1,B3,binds
2,B4,binds
3,B5,binds

# Same assay, conditions: tags: Calbiochem; chain copies: 2; label: 3' A16 tail for immobilisation
row,Binder,binding result
1,"GGAGGUGCUCGAAAGAACUCC (ssRNA, 2'-F at all pyrimidines) [SEQ ID NO:18]",binds
2,"GGACAGGUGCUCCAUCAACAAAAUGUUACAUGGAACUGUCC (ssRNA, 2'-F at all pyrimidines) [SEQ ID NO:12]",binds
3,"GGACAGGUGCUCUGCGAGCCACGCGGAACUGUCC (ssRNA, 2'-F at all pyrimidines) [SEQ ID NO:13]",binds

# Target: T1, IgG1
# Assay: SPR; parent SEQ 17 ++
# Conditions: tags: Calbiochem; chain copies: 2
# Description: (§1) Used for the measurements was BIAcore 2000 manufactured by BIAcore. Used as the sensor chip was the SA chip having streptavidin immobilized thereon. Bound thereto was about 1000 RU of 16-residue Poly dT having biotin bound to the 5′ end thereof. The RNA for use as the ligand had 16-residue Poly A added to the 3′ end thereof, and immobilized to the SA chip via a bond between dT and A. The amount immobilized was adjusted to about 1000 RU by injecting 60 μL at a concentration of 0.01 μg/μL. 70 μL of IgG-Fc for analyte (manufactured by Athens Research & Technology), adjusted to 0.6 μM, was injected. The running buffer used had the same components as those of the solution A used in SELEX.
# The RNAs were prepared by chemical synthesis (manufactured by Gene Design). Their binding affinities were measured by a surface plasmon resonance method as in Example 1. Used as the IgG was human IgG1 (manufactured by Calbiochem).
row,Binder,binding result
1,"GGAGGUGCUCCGAAAGGAACUCCAAAAAAAAAAAAAAAA (mixed, as 17-8 with 2'-OMe C11) [SEQ ID NO:17-13 (23F43)]",binds
2,B6,binds
3,"GGAGGUGCUCCGAAAGGAACUCCAAAAAAAAAAAAAAAA (mixed, as 17-7 with 2'-OMe U9) [SEQ ID NO:17-14 (23F31)]",binds
4,"GGAGGUGCUCCGAAAGGAACUCCAAAAAAAAAAAAAAAA (mixed, as 17-7 with 2'-OMe G17) [SEQ ID NO:17-10 (23F33)]",binds
5,B7,binds
6,"GGAGGUGCUCCGAAAGGAACTCCAAAAAAAAAAAAAAAA (mixed, 2'-F U6 C8 U9 C20; deoxy C10 C11 T21 C22 C23 and A16 tail; rest 2'-OH) [SEQ ID NO:17-1 (23F1)]",binds
7,"GGAGGUGCUCCGAAAGGAACUCCAAAAAAAAAAAAAAAA (mixed, as 17-8 with 2'-OMe U9) [SEQ ID NO:17-11 (23F41)]",binds
8,B8,binds
9,B9,binds
10,"GGAGGUGCUCCGAAAGGAACUCCAAAAAAAAAAAAAAAA (mixed, as 17-8 with 2'-OMe C10) [SEQ ID NO:17-12 (23F42)]",binds
11,B10,binds

# Target: T1, IgG1
# Assay: SPR; solution A
# Conditions: tags: Calbiochem; chain copies: 2; label: 3' A16 tail for SPR; 5' biotin for serum pull-down
# Description: as §1
# The dissociation constant was determined by immobilizing an RNA having 16-residue PolyA added to the 3′ end thereof onto a sensor chip via an A-dT bond, injecting different concentrations of IgG (0.6 μM to 0.05 μM), and performing surface plasmon resonance.
# Measurements were performed in the same manner as Example 1 by immobilizing an RNA having 16-residue Poly A added thereto via an A-pT bond, and injecting IgG thereto.
row,Binder,Kd
1,"GGAGGUGCUCUGCGAGCCACGCGGAACUCC (ssRNA, 2'-F at all pyrimidines) [SEQ ID NO:15]",5 nM

# Same assay, conditions: tags: Calbiochem; chain copies: 2; label: 3' A16 tail for immobilisation
row,Binder,Kd
1,B11,1 nM
2,B12,6 nM
3,"GGACAGGUGCUCUGCGGAAACGCGGAACUGUCC (ssRNA, 2'-F at all pyrimidines) [SEQ ID NO:14]",4 nM
4,"GGACAGGUGCUCCGAAAGGAACUGUCC (ssRNA, 2'-F at all pyrimidines) [SEQ ID NO:16]",6 nM

# Same assay, conditions: tags: Calbiochem; chain copies: 2; label: 3' A16 tail for immobilisation; GGUGCU bulge
row,Binder,Kd
1,B13,1 nM
2,B14,20 nM
3,B15,30 nM
4,B16,3 nM
5,B17,5 nM
6,B18,0.001 nM
7,B19,10 nM

# Same assay, conditions: tags: Calbiochem; chain copies: 2; label: 3' A16 tail for immobilisation; GGUGCU bulge (vsfold4)
row,Binder,Kd
1,B20,20 nM

# Target: T1, IgG1
# Assay: SPR; parent SEQ 15 ++++
# Conditions: tags: Calbiochem; chain copies: 2
row,Binder,binding result
1,B21,binds
2,B22,binds
